Measured values published in a protein production outcome set (Wang et al. 2014).

Test: label from the status in PepcDB records

Sequence | protein production
MINSVGVVRKEAENCNCLQVFFVSGSFKVDSVEAKKKEENFRETLRDMANSKYEYVKSFELEDEVMLPNLMVVRIDGRDFSRFSQVHEFEKPNDETALNLMNSCSAAVLEEFPDIIFAYGYSDEYSFVFKKTSRFYQRRASKILSLVASFFAAVYVTKWKEFFPQRKLLYAPSFSSKVVSCASAEVLQAYLAWRQQDCHANNQYDTCFWMLVKSGKSVSETQEILKDTQKQQKNELLFQKFGINYKTLPELFRQGSCLFKKKVEETVKHDENGNPVKRLRRKAVFVHSENIAGRSFWNEQPSLYNDLGHFTKDIGKIEPDFIRSFQFENKLLPLTWVVVRIDGCHFHRFSDVHEFEKPNDEQALKLMNSCAVAVLEEFEDIHFAYGVSDEYSFVLKKESELYKRQSSKIISAVASFFTSTYVLQWGEFFPHKELKYPPSFDGRAVCYPTYNILLDYLAWRQVDCHINNQYNTCFWMLVKSGKNKTQSQDYLKGTQTREKNELLSRQFGIEYNSLPVIFRMGSSVFRLKEAENGVVSGKKLEGEVVVDHCNIIERCFWEEHLHILSYS | failed
MKTRINYAKASPEAFKAVMALENYVQSSGLEHRFIHLIKLRASIINGCAFCVDMHVKESRHDGLSEQWINLMSVWRESPVYTEQERALLGWVDAVTKIAETGAPDDAFETLRAHFSDEEIVKITVAIGAINTWNRIAVGFRSQHPVEAAAKAA | not failed
MDDGQDAGRSGHRKAATAREGAEAMKPETPGGTAALAKGLTLLDMVADAPEPPRFAELLRASGLPKPTFARILRTLIAYGLVRQDEARGTYVLGQRFLEMSHKVWESFDLVSAATPELERLAAELGETVALCRLDGTMTQYLAERSPNGLSVRVEVGRRVPLHCTAPGKALLAFQDPAVGRALLDRLTLDLQTAKTITTLDALQADLTLTRARGYSISYEEHLPGVNSVAAPVMGRDNTPMGVLVALGPSSRLDSSNIHPAGRELIAAARRITGAAGAVAISSRPRPRSATGRPSAELSCILPWGAQLGESPVWHEGEDALYWVDILHPAVHRFDPATGRNETCETGKLVSAVIPVTGGRLLVASQDGVEWLDFASGRLTPFVSPEAGIADNRLNDAKCGPDGAIWVGSMRIDASKPTGALYRINANGASERKEGGIIVSNGLGWSPDGRTFYFVDTVPGLIHAYDCDPATGALSQRREFARIPVADGRPDGLAVDAEGGVWCAIWDGWCVRRYLPNGKLDQVIDMPVPRPSSIAFGGPDLSTLFITSARTRLPASTLADAPLSGGLFSCRPGISGARIAMFEG | failed
MSHRRDYGSDAVHVRITHDPPPENCFPNSGDSSVWATEDDYSRVWAINSDGAESPSKKTRSSSSSEIGKSFFKTKLCFKFRAGTCPYSASSCHFAHSAEELRLPPPPPPNWQETVTEASRNRESFAVSLGPRGNVAQTLKSPNWKTRICNKWQTTGYCPFGSHCHFAHGPSGKATAFFIY | failed
MLIAVPLDDTNFSENLKKAKEKGADIVELRVDQFSDTSLNYVKEKLEEVHSQGLKTILTIRSPEEGGREVKNREELFEELSPLSDYTDIELSSRGLLVKLYNITKEAGKKLIISYHNFELTPPNWIIREVLREGYRYGGIPKIAVKANSYEDVARLLCISRQVEGEKILISMGDYGKISRLAGYVFGSVITYCSLEKAFAPGQIPLEEMVELRKKFYRL | not failed
MGLFTDGFKLLKKASEPLYKTPKSIQETIEIMAVAENGIFEVSKNKYSKCYRFQDINYTTATEDEQIGIFERYCKFLNSLDCNYKITINNKNKNMDELRDKVLIAEKNDGFNNYRRIYNDIIEEKIIEGRQGIEQERYLTITIERKNFEEAKAQFATLEATIHKAFIELGAEIVPLNGNERLKVLYDYYHLGDEGSFDFDIKKAKKVGADFRNDLCNGMVKYFPDHFEDESKFCKALFIKKYPSSLSDRFINEITSLPVHSITSIDVVPVPKDLTTKVLQKKYLGIESDIIKQQRVRNKNNDFSTEISYAKRTEKKEIEEIMDDVRENDQCLFFVGVTIILMAESKKELESVCETVETIGKRNSCTIDTHYLKQREALNTALPIGVRQVETMRTLLTQSLAVLMPFNVQELNDSTGNYYGINQISKNVNIGNRKKLINGNGFVFGVPGSGKSFFCKMEMGSVFLSGDDEIIVIDPMNEYFDIAETYGGTVVNMSTYTDNYVNPLEMDVWSLDPNDSKGMVREKGEFMLGLCEQCIGDSLNSRQKSIIDRCVRKLYIDIARSKEKYIPVMSDFYDILMAQPEDEAKDIALSLELFVNGSLNIFNHQTNVDVDNRFTVYGIRDLGTELSPITMLVMMESIQNRIVENGKRGKATWLYIDEFHVLLNSEYSAKYLQQLWKKVRKQGGLCTGITQNVVDLLQNYTATTMLANSEFVALLKQANTDSSKMAEVIGVSEAQLRFVTNTASGMGLIKCGSVVIPFDNQISKDTDLYKLYNTNIHEIIEMKKHANEKNVNSL | failed
MSLTPTVMVVDESRITFLAVKNALEKDGFNVIWAKNEQEAFTFLRREKIDLVFVDVFEGEESLNLIRRIREEFPDTKVAVLSAYVDKDLIINSVKAGAVDYILKPFRLDYLLERVKKIISSTPRVTVSLRKNIEEGHHHHHH | not failed
MTAGGPLITAALTAYDAEDTIAGALASALAQDWPSLEVLILDDASRDGTRKVIEAVITERGDQGPPIRLIALDKNGGVAQARNRLLAEAKGEVIAFFDDDDISAPDRLRRQYARLIAAERETGAGLVFCHAARCQILPDGGERLEGTMGEEGGPIPGGDAVVRRILLGTLSPGVRGSCATCSQMARTASYRALGGFDPTLRRAEDTDLCLRAALGGAVFAGLSAPLVTQRLTLGGDKTPREDHRAYQALLNKHRATLAKTGWLTFYARWQDIRLAHLEGRTGRVVLGLVGLGLSHPLKLARKIVWSLPAAGTRAAYHRQHRKDTS | failed
MAALGLGTYGAHVFKPENPSYKQVWQTASLYHLVHTAALVSAPSTKYPNIFGGLLTAGIVAFSGTCYMVALREDRKFSTLAPFGGFAFIAAWATLLF | failed
MVPDVFIEVSLVIFIAFFISLVMRMLKQPLIIGYILTGILVSPYFLNIVRFEESISTLGHYGVTILLFMVGISLNPGYFKEIGKISLITGLGQILFTFSIGFLISVFLGYSLIESMYISIALTFSSTIIIMKLISDKGDIDKLYGKISIGFLIVQDIVAMAILVLISAFNVQSGAGELLFLIISKIVLILTAIYIFTKYALSNFISYASKNQEFLFLFSLMWCFTLASLFHLLGFSSEIGALIAGIVLAIFPERYEIASKVRPLRDFFLILFFVVLGVQMTFETSGNFIIPAIILSIFVLFGNPIIVMILMGAFGYTKKTGFLAGLTVAQISEFSLIIASLGLRNGHISQEIVSMITLIGIMTIAGSSYFITYSERIYALLSNYLSIFEKKTKISEKDFKNKNTGEIILFGADRTGKNILNVIENSKERFLIIDYNPKIIKNLSKRGYNSVYGDASNLELLNELNFKESKMLISTISDIETDILLIKTILKSNKNAIIIVIAHKIEDAIKLYEEGASYVIMPHFLGSIHASLMIQKYGLNIEEFLKEKSNHIESLKKSQELFRHTK | failed
MAGSHAGTLRVLQAVDTELTADSVEWCPVEGYQHLLACGTYQLRAPRDQPALDGSEPQVRLGRLYLFSFSEHNTAKPLLEVQRRDSSAVLDMKWCHIPVSGHVLLGLANASGSIGLLRLMECENNSYTLQPISSLALDENCLSLSMDWSTGKSVRAREQPLKIISSDSKGQLHLLMVNEGTAELQLVASWPAHHFEAWIAAFNYWQTELVYSGGDDCLLRGWDTRMLGTPVFTSKRHCMGVCSIQSSPHQEHILATGSYDEHVLLWDTRNIRQPLADVPVQGGVWRLKWHPVHHHLLLAACMHNGFKILNCQKAIEEKQDITVLTSHEMPNSLVYGADWSWLFHSMKPTPTWFFDQNDMGVKAADHSSLKVTEEPPIHSQEQTMDRQVEGPANAHTRAELKASLLPLTEDMKNSKDCSSSSVKTRDLSHCSGGQSFDNSLLATCSFYDHVLHLWKWETNQARTLCSGTGCDLGSADH | failed
TEKTKAVETTDVALAIDTLVQNGLKALDEMRQLNQEQVDYIVAKASVAALDAHGELALHAVEETGRGVFEDKATKNLFACEHVVNNMRHTKTVGVIEEDDVTGLTLIAEPVGVVCGITPTTNPTSTAIFKSLISLKTRNPIIFAFHPSAQESSAHAARIVRDAAIAAGAPENCVQWIEQPSIDATNALMNHDGIATILATGGNAMVKAAYSCGKPALGVGAGNVPAYVEKSANIRQAAHDIVMSKSFDNGMVCASE | not failed
